In US11708423B2, “Chimeric engulfment receptor molecules and methods of use” (CERO THERAPEUTICS, INC., priority 2017, dated 2023):

Test system: H1975 lung adenocarcinoma cells
Assay: LDH assay, H1975 cells, 48 hours co-culture with 1 μM Osimeritinib
Format: cell-based
Details: E:T 1:1, 48 hours, CD4+ T cells
Source text: CER30 comprises a Tim4 binding domain, Tim4 transmembrane domain, and an engulfment signaling domain comprising a primary engulfment signaling domain comprising a TRAF2 signaling domain. CER30 has a polypeptide sequence as set forth in SEQ ID NO:96. CER110 has a polypeptide sequence of SEQ ID NO:125 and comprises a Tim4 binding domain, Tim4 transmembrane domain, and an engulfment signaling domain comprising a primary engulfment signaling domain comprising a TRAF6 signaling domain and a secondary engulfment signaling domain comprising a DAP12 signaling domain. CER112 has a polypeptide sequence of SEQ ID NO:128 and comprises a Tim4 binding domain, Tim4 transmembrane domain, and an engulfment signaling domain comprising a primary engulfment signaling domain comprising a TRAF6 signaling domain and a secondary engulfment signaling domain comprising a NFAM1 signaling domain. CER127 has a polypeptide sequence of SEQ ID NO:175 and comprises a Tim4 binding domain, Tim4 transmembrane domain, and an engulfment signaling domain comprising a primary engulfment signaling domain comprising a TRAF2 signaling domain and a secondary engulfment signaling domain comprising a TLR2 signaling domain. H1975 cells are more resistant to EGFR inhibitors, so Osimeritinib was used at slightly higher concentration. H1975 lung adenocarcinoma cells harboring an EGFR mutation were co-cultured with CER-expressing or mock-transduced (vector only) CD4+ T cells with 1 μM of Osimeritinib. After 48 hours of co-culture at a 1:1 effector:target cell ratio, T cells were washed away, and the number of viable H1975 cells was quantified using a calorimetric LDH assay (FIG. 57). Cell viability experiments were performed in triplicate and presented as % of control.

| Molecule | killing of H1975 cells (LDH) |
| --- | --- |
| CER124: Tim4 binding and transmembrane domains, TLR2 primary and NFAM1 secondary signaling domains; SEQ ID NO:151 (protein, CER124 protein) MSKGLLLLWLVTELWWLYLTPAASEDTIIGFLGQPVTLPCHYLSWSQSRNSMCWGKGSCPNSKCNAELLRTDGTRIISRKSTKYTLLGKVQFGEVSLTISNTNRGDSGVYCCRIEVPGWFNDVKKNVRLELRRATTTKKPTTTTRPTTTPYVTTTTPELLPTTVMTTSVLPTTTPPQTLATTAFSTAVTTCPSTTPGSFSQETTKGSAFTTESETLPASNHSQRSMMTISTDIAVLRPTGSNPGILPSTSQLTTQKTTLTTSESLQKTTKSHQINSRQTILIIACCVGFVLMVLLFLAFLHRFHGLWYMKMMWAWLQAKRKPRKAPSRNICYDAFVSYSERDAYWVENLMVQELENFNPPFKLCLHKRDFIPGKWIIDNIIDSIEKSHKTVFVLSENFVKSEWCKYELDFSHFRLFDENNDAAILILLEPIEKKAIPQRFCKLRKIMNTKTYLEWPMDEAQREGFWVNLRAAIKSLWNKKRMRGPGKDPTRKCPDPRSASSPKQHPSESVYTALQRRETEVYACIENEDGSSPTAKQSPLSQERPHRFEDDGELNLVYENL | synergistic killing of H1975 lung adenocarcinoma cells upon EGFR inhibition |
| CER108: Tim4 binding and transmembrane domains, DAP12 primary and TLR8 secondary signaling domains; SEQ ID NO:137 (protein, CER108 protein) MSKGLLLLWLVTELWWLYLTPAASEDTIIGFLGQPVTLPCHYLSWSQSRNSMCWGKGSCPNSKCNAELLRTDGTRIISRKSTKYTLLGKVQFGEVSLTISNTNRGDSGVYCCRIEVPGWFNDVKKNVRLELRRATTTKKPTTTTRPTTTPYVTTTTPELLPTTVMTTSVLPTTTPPQTLATTAFSTAVTTCPSTTPGSFSQETTKGSAFTTESETLPASNHSQRSMMTISTDIAVLRPTGSNPGILPSTSQLTTQKTTLTTSESLQKTTKSHQINSRQTILIIACCVGFVLMVLLFLAFLYFLGRLVPRGRGAAEAATRKQRITETESPYQELQGQRSDVYSDLNTQRPYYKHHLFYWDVWFIYNVCLAKVKGYRSLSTSQTFYDAYISYDTKDASVTDWVINELRYHLEESRDKNVLLCLEERDWDPGLAIIDNLMQSINQSKKTVFVLTKKYAKSWNFKTAFYLALQRLMDENMDVIIFILLEPVLQHSQYLRLRQRICKSSILQWPDNPKAEGLFWQTLRNVVLTENDSRYNNMYVDSIKQY | synergistic killing of H1975 lung adenocarcinoma cells upon EGFR inhibition |
| CER30: Tim4 binding and transmembrane domains, Traf2 signaling domain; SEQ ID NO:96 (protein, CER30 chimeric engulfment receptor) MSKGLLLLWLVTELWWLYLTPAASEDTIIGFLGQPVTLPCHYLSWSQSRNSMCWGKGSCPNSKCNAELLRTDGTRIISRKSTKYTLLGKVQFGEVSLTISNTNRGDSGVYCCRIEVPGWFNDVKKNVRLELRRATTTKKPTTTTRPTTTPYVTTTTPELLPTTVMTTSVLPTTTPPQTLATTAFSTAVTTCPSTTPGSFSQETTKGSAFTTESETLPASNHSQRSMMTISTDIAVLRPTGSNPGILPSTSQLTTQKTTLTTSESLQKTTKSHQINSRQTILIIACCVGFVLMVLLFLAFLMAAASVTPPGSLELLQPGFSKTLLGTKLEAKYLCSACRNVLRRPFQAQCGHRYCSFCLASILSSGPQNCAACVHEGIYEEGISILESSSAFPDNAARREVESLPAVCPSDGCTWKGTLKEYESCHEGRCPLMLTECPACKGLVRLGEKERHLEHECPERSLSCRHCRAPCCGADVKAHHEVCPKFPLTCDGCGKKKIPREKFQDHVKTCGKCRVPCRFHAIGCLETVEGEKQQEHEVQWLREHLAMLLSSVLEAKPLLGDQSHAGSELLQRCESLEKKTATFENIVCVLNREVERVAMTAEAC | synergistic killing of H1975 lung adenocarcinoma cells upon EGFR inhibition |
| CER27: Tim4 binding and transmembrane domains, TLR2 signaling domain; SEQ ID NO:93 (protein, CER27 chimeric engulfment receptor) MSKGLLLLWLVTELWWLYLTPAASEDTIIGFLGQPVTLPCHYLSWSQSRNSMCWGKGSCPNSKCNAELLRTDGTRIISRKSTKYTLLGKVQFGEVSLTISNTNRGDSGVYCCRIEVPGWFNDVKKNVRLELRRATTTKKPTTTTRPTTTPYVTTTTPELLPTTVMTTSVLPTTTPPQTLATTAFSTAVTTCPSTTPGSFSQETTKGSAFTTESETLPASNHSQRSMMTISTDIAVLRPTGSNPGILPSTSQLTTQKTTLTTSESLQKTTKSHQINSRQTILIIACCVGFVLMVLLFLAFLHRFHGLWYMKMMWAWLQAKRKPRKAPSRNICYDAFVSYSERDAYWVENLMVQELENFNPPFKLCLHKRDFIPGKWIIDNIIDSIEKSHKTVFVLSENFVKSEWCKYELDFSHFRLFDENNDAAILILLEPIEKKAIPQRFCKLRKIMNTKTYLEWPMDEAQREGFWVNLRAAIKS | synergistic killing of H1975 lung adenocarcinoma cells upon EGFR inhibition |
| CER127: Tim4 binding and transmembrane domains, TRAF2 primary and TLR2 secondary signaling domains; SEQ ID NO:175 (protein, CER127 protein) MSKGLLLLWLVTELWWLYLTPAASEDTIIGFLGQPVTLPCHYLSWSQSRNSMCWGKGSCPNSKCNAELLRTDGTRIISRKSTKYTLLGKVQFGEVSLTISNTNRGDSGVYCCRIEVPGWFNDVKKNVRLELRRATTTKKPTTTTRPTTTPYVTTTTPELLPTTVMTTSVLPTTTPPQTLATTAFSTAVTTCPSTTPGSFSQETTKGSAFTTESETLPASNHSQRSMMTISTDIAVLRPTGSNPGILPSTSQLTTQKTTLTTSESLQKTTKSHQINSRQTILIIACCVGFVLMVLLFLAFLMAAASVTPPGSLELLQPGFSKTLLGTKLEAKYLCSACRNVLRRPFQAQCGHRYCSFCLASILSSGPQNCAACVHEGIYEEGISILESSSAFPDNAARREVESLPAVCPSDGCTWKGTLKEYESCHEGRCPLMLTECPACKGLVRLGEKERHLEHECPERSLSCRHCRAPCCGADVKAHHEVCPKFPLTCDGCGKKKIPREKFQDHVKTCGKCRVPCRFHAIGCLETVEGEKQQEHEVQWLREHLAMLLSSVLEAKPLLGDQSHAGSELLQRCESLEKKTATFENIVCVLNREVERVAMTAEACHRFHGLWYMKMMWAWLQAKRKPRKAPSRNICYDAFVSYSERDAYWVENLMVQELENFNPPFKLCLHKRDFIPGKWIIDNIIDSIEKSHKTVFVLSENFVKSEWCKYELDFSHFRLFDENNDAAILILLEPIEKKAIPQRFCKLRKIMNTKTYLEWPMDEAQREGFWVNLRAAIKS | synergistic killing of H1975 lung adenocarcinoma cells upon EGFR inhibition |
| CER129: Tim4 binding and transmembrane domains, TLR8 primary and TRAF2 secondary signaling domains; SEQ ID NO:177 (protein, CER129 protein) MSKGLLLLWLVTELWWLYLTPAASEDTIIGFLGQPVTLPCHYLSWSQSRNSMCWGKGSCPNSKCNAELLRTDGTRIISRKSTKYTLLGKVQFGEVSLTISNTNRGDSGVYCCRIEVPGWFNDVKKNVRLELRRATTTKKPTTTTRPTTTPYVTTTTPELLPTTVMTTSVLPTTTPPQTLATTAFSTAVTTCPSTTPGSFSQETTKGSAFTTESETLPASNHSQRSMMTISTDIAVLRPTGSNPGILPSTSQLTTQKTTLTTSESLQKTTKSHQINSRQTILIIACCVGFVLMVLLFLAFLHHLFYWDVWFIYNVCLAKVKGYRSLSTSQTFYDAYISYDTKDASVTDWVINELRYHLEESRDKNVLLCLEERDWDPGLAIIDNLMQSINQSKKTVFVLTKKYAKSWNFKTAFYLALQRLMDENMDVIIFILLEPVLQHSQYLRLRQRICKSSILQWPDNPKAEGLFWQTLRNVVLTENDSRYNNMYVDSIKQYMAAASVTPPGSLELLQPGFSKTLLGTKLEAKYLCSACRNVLRRPFQAQCGHRYCSFCLASILSSGPQNCAACVHEGIYEEGISILESSSAFPDNAARREVESLPAVCPSDGCTWKGTLKEYESCHEGRCPLMLTECPACKGLVRLGEKERHLEHECPERSLSCRHCRAPCCGADVKAHHEVCPKFPLTCDGCGKKKIPREKFQDHVKTCGKCRVPCRFHAIGCLETVEGEKQQEHEVQWLREHLAMLLSSVLEAKPLLGDQSHAGSELLQRCESLEKKTATFENIVCVLNREVERVAMTAEAC | synergistic killing of H1975 lung adenocarcinoma cells upon EGFR inhibition |
